Assay results: publication doi:10.1101/2023.10.03.560691
Ends that are not written are not given here.

B1: 6xHis-tagged ubiquitin fusion protein with the designed Orf63 binding peptide (designed binder)
chain: GGLVPRGSGDTKELILAIARKVKEMIKNS
modifications: also: fused to 6xHis-tagged ubiquitin

Tests used:
[1] = biological target: Phage λ Orf63, 6xHis-Flag affinity tagged (phage λ); assay: SEC-MALS
[2] = biological target: Phage λ Orf63, 6xHis-Flag affinity tagged (phage λ); assay: BLI

Molecule	stoichiometry N [1]	Kd [2]
Phage λ Orf63, 6xHis-Flag affinity tagged (natural protein)	2	–
B1	–	> 20 µM
